# Assay results: US20150344540A1, “NOVEL GLP-1 RECEPTOR AGONISTS WITH CHOLESTEROL EFFLUX ACTIVITY” (NOVO NORDISK A/S, priority 2012, published 2015)
# Where no end group is shown, it is not given here. [ ]: non-standard residue; d: D form. The star is where a group is joined. Desaminohistidyl = O=C(CCc1c[nH]cn1)*; Aib = CC(C)(N)C(=O)O
# B1: [Aib8,Glu23,Val25,Gln30,Leu33,Glu34,Lys35,Aib36,Lys37]-GLP-1-(7-37)-peptidyl-Glu-Phe-Leu amide (peptide)
# peptide: H[Aib]EGTFTSDVSSYLEGEAVKEFIQWLLEK[Aib]KEFL-NH2
# modifications: N-terminus assumed
# SMILES: CC[C@H](C)[C@H](NC(=O)[C@H](Cc1ccccc1)NC(=O)[C@H](CCC(=O)O)NC(=O)[C@H](CCCCN)NC(=O)[C@@H](NC(=O)[C@H](C)NC(=O)[C@H](CCC(=O)O)NC(=O)CNC(=O)[C@H](CCC(=O)O)NC(=O)[C@H](CC(C)C)NC(=O)[C@H](Cc1ccc(O)cc1)NC(=O)[C@H](CO)NC(=O)[C@H](CO)NC(=O)[C@@H](NC(=O)[C@H](CC(=O)O)NC(=O)[C@H](CO)NC(=O)[C@@H](NC(=O)[C@H](Cc1ccccc1)NC(=O)[C@@H](NC(=O)CNC(=O)[C@H](CCC(=O)O)NC(=O)C(C)(C)NC(=O)[C@@H](N)Cc1c[nH]cn1)[C@@H](C)O)[C@@H](C)O)C(C)C)C(C)C)C(=O)N[C@@H](CCC(N)=O)C(=O)N[C@@H](Cc1c[nH]c2ccccc12)C(=O)N[C@@H](CC(C)C)C(=O)N[C@@H](CC(C)C)C(=O)N[C@@H](CCC(=O)O)C(=O)N[C@@H](CCCCN)C(=O)NC(C)(C)C(=O)N[C@@H](CCCCN)C(=O)N[C@@H](CCC(=O)O)C(=O)N[C@@H](Cc1ccccc1)C(=O)N[C@@H](CC(C)C)C(N)=O
# B2: [Aib8,Val25,Asn34,Lys35,Aib36,Ala37]-GLP-1-(7-37)-peptidyl-Glu-Phe-Leu amide (peptide)
# peptide: H[Aib]EGTFTSDVSSYLEGQAVKEFIAWLVNK[Aib]AEFL-NH2
# modifications: N-terminus assumed
# SMILES: CC[C@H](C)[C@H](NC(=O)[C@H](Cc1ccccc1)NC(=O)[C@H](CCC(=O)O)NC(=O)[C@H](CCCCN)NC(=O)[C@@H](NC(=O)[C@H](C)NC(=O)[C@H](CCC(N)=O)NC(=O)CNC(=O)[C@H](CCC(=O)O)NC(=O)[C@H](CC(C)C)NC(=O)[C@H](Cc1ccc(O)cc1)NC(=O)[C@H](CO)NC(=O)[C@H](CO)NC(=O)[C@@H](NC(=O)[C@H](CC(=O)O)NC(=O)[C@H](CO)NC(=O)[C@@H](NC(=O)[C@H](Cc1ccccc1)NC(=O)[C@@H](NC(=O)CNC(=O)[C@H](CCC(=O)O)NC(=O)C(C)(C)NC(=O)[C@@H](N)Cc1c[nH]cn1)[C@@H](C)O)[C@@H](C)O)C(C)C)C(C)C)C(=O)N[C@@H](C)C(=O)N[C@@H](Cc1c[nH]c2ccccc12)C(=O)N[C@@H](CC(C)C)C(=O)N[C@H](C(=O)N[C@@H](CC(N)=O)C(=O)N[C@@H](CCCCN)C(=O)NC(C)(C)C(=O)N[C@@H](C)C(=O)N[C@@H](CCC(=O)O)C(=O)N[C@@H](Cc1ccccc1)C(=O)N[C@@H](CC(C)C)C(N)=O)C(C)C
# B3: [Aib8,Val25,Gln27,Asn34,Lys35,Aib36,Ala37]-GLP-1-(7-37)-peptidyl-Glu-Phe-Leu amide (peptide)
# peptide: H[Aib]EGTFTSDVSSYLEGQAVKQFIAWLVNK[Aib]AEFL-NH2
# modifications: N-terminus assumed
# SMILES: CC[C@H](C)[C@H](NC(=O)[C@H](Cc1ccccc1)NC(=O)[C@H](CCC(N)=O)NC(=O)[C@H](CCCCN)NC(=O)[C@@H](NC(=O)[C@H](C)NC(=O)[C@H](CCC(N)=O)NC(=O)CNC(=O)[C@H](CCC(=O)O)NC(=O)[C@H](CC(C)C)NC(=O)[C@H](Cc1ccc(O)cc1)NC(=O)[C@H](CO)NC(=O)[C@H](CO)NC(=O)[C@@H](NC(=O)[C@H](CC(=O)O)NC(=O)[C@H](CO)NC(=O)[C@@H](NC(=O)[C@H](Cc1ccccc1)NC(=O)[C@@H](NC(=O)CNC(=O)[C@H](CCC(=O)O)NC(=O)C(C)(C)NC(=O)[C@@H](N)Cc1c[nH]cn1)[C@@H](C)O)[C@@H](C)O)C(C)C)C(C)C)C(=O)N[C@@H](C)C(=O)N[C@@H](Cc1c[nH]c2ccccc12)C(=O)N[C@@H](CC(C)C)C(=O)N[C@H](C(=O)N[C@@H](CC(N)=O)C(=O)N[C@@H](CCCCN)C(=O)NC(C)(C)C(=O)N[C@@H](C)C(=O)N[C@@H](CCC(=O)O)C(=O)N[C@@H](Cc1ccccc1)C(=O)N[C@@H](CC(C)C)C(N)=O)C(C)C
# B4: [desamino-His7,Aib8,Glu23,Val25,Glu34,Lys35,Val36,Lys37]-GLP-1-(7-37)-peptidyl-Glu-Phe-Leu amide (peptide)
# peptide: [Desaminohistidyl][Aib]EGTFTSDVSSYLEGEAVKEFIAWLVEKVKEFL-NH2
# SMILES: CC[C@H](C)[C@H](NC(=O)[C@H](Cc1ccccc1)NC(=O)[C@H](CCC(=O)O)NC(=O)[C@H](CCCCN)NC(=O)[C@@H](NC(=O)[C@H](C)NC(=O)[C@H](CCC(=O)O)NC(=O)CNC(=O)[C@H](CCC(=O)O)NC(=O)[C@H](CC(C)C)NC(=O)[C@H](Cc1ccc(O)cc1)NC(=O)[C@H](CO)NC(=O)[C@H](CO)NC(=O)[C@@H](NC(=O)[C@H](CC(=O)O)NC(=O)[C@H](CO)NC(=O)[C@@H](NC(=O)[C@H](Cc1ccccc1)NC(=O)[C@@H](NC(=O)CNC(=O)[C@H](CCC(=O)O)NC(=O)C(C)(C)NC(=O)CCc1c[nH]cn1)[C@@H](C)O)[C@@H](C)O)C(C)C)C(C)C)C(=O)N[C@@H](C)C(=O)N[C@@H](Cc1c[nH]c2ccccc12)C(=O)N[C@@H](CC(C)C)C(=O)N[C@H](C(=O)N[C@@H](CCC(=O)O)C(=O)N[C@@H](CCCCN)C(=O)N[C@H](C(=O)N[C@@H](CCCCN)C(=O)N[C@@H](CCC(=O)O)C(=O)N[C@@H](Cc1ccccc1)C(=O)N[C@@H](CC(C)C)C(N)=O)C(C)C)C(C)C
# B5: [Aib8,Glu23,Val25,Glu34,Lys35,Val36,Lys37]-GLP-1-(7-37)-peptidyl-Glu-His-Leu amide (peptide)
# peptide: H[Aib]EGTFTSDVSSYLEGEAVKEFIAWLVEKVKEHL-NH2
# modifications: N-terminus assumed
# SMILES: CC[C@H](C)[C@H](NC(=O)[C@H](Cc1ccccc1)NC(=O)[C@H](CCC(=O)O)NC(=O)[C@H](CCCCN)NC(=O)[C@@H](NC(=O)[C@H](C)NC(=O)[C@H](CCC(=O)O)NC(=O)CNC(=O)[C@H](CCC(=O)O)NC(=O)[C@H](CC(C)C)NC(=O)[C@H](Cc1ccc(O)cc1)NC(=O)[C@H](CO)NC(=O)[C@H](CO)NC(=O)[C@@H](NC(=O)[C@H](CC(=O)O)NC(=O)[C@H](CO)NC(=O)[C@@H](NC(=O)[C@H](Cc1ccccc1)NC(=O)[C@@H](NC(=O)CNC(=O)[C@H](CCC(=O)O)NC(=O)C(C)(C)NC(=O)[C@@H](N)Cc1c[nH]cn1)[C@@H](C)O)[C@@H](C)O)C(C)C)C(C)C)C(=O)N[C@@H](C)C(=O)N[C@@H](Cc1c[nH]c2ccccc12)C(=O)N[C@@H](CC(C)C)C(=O)N[C@H](C(=O)N[C@@H](CCC(=O)O)C(=O)N[C@@H](CCCCN)C(=O)N[C@H](C(=O)N[C@@H](CCCCN)C(=O)N[C@@H](CCC(=O)O)C(=O)N[C@@H](Cc1c[nH]cn1)C(=O)N[C@@H](CC(C)C)C(N)=O)C(C)C)C(C)C
# Biological target: human GLP-1 receptor (human, UniProt P43220)
# Assay: cell-based or functional assay
Binder,"CRE luciferase EC50, 0% HSA [pM]","CRE luciferase EC50, 1% HSA [pM]"
"HGEGTFTSDVSSYLEGEAVKEFIAWLVEKVKEFL-NH2 [[Gly8,Glu23,Val25,Glu34,Lys35,Val36,Lys37]-GLP-1-(7-37)-peptidyl-Glu-Phe-Leu amide]",6080,1380
B1,238,61
B2,108,62
B3,235,109
B4,886,242
"HGEGTFTSDVSSYLEGEAVKEFIAWLVEKVKEHL-NH2 [[Gly8,Glu23,Val25,Glu34,Lys35,Val36,Lys37]-GLP-1-(7-37)-peptidyl-Glu-His-Leu amide]",337,96
B5,89,116
